In PMC13330650 (Matrix biology : journal of the International Society for …, 2025):
Numbering of substitutions follows the chain as printed. Names may count otherwise.

B1: UGDH T325D: obligate dimeric UGDH mutant, T325 to aspartate (protein, UniProt O60701 1-494, looked up, variant T325D)
UDP-glucose 6-dehydrogenase: MFEIKKICCIGAGYVGGPTCSVIAHMCPEIRVTVVDVNESRINAWNSPTLPIYEPGLKEVVESCRGKNLFFSTNIDDAIKEADLVFISVNTPTKTYGMGKGRAADLKYIEACARRIVQNSNGYKIVTEKSTVPVRAAESIRRIFDANTKPNLNLQVLSNPEFLAEGTAIKDLKNPDRVLIGGDETPEGQRAVQALCAVYEHWVPREKILTTNTWSSELSKLAANAFLAQRISSINSISALCEATGADVEEVATAIGMDQRIGNKFLKASVGFGGSCFQKDVLNLVYLCEALNLPEVARYWQQVIDMNDYQRRRFASRIIDSLFNDVTDKKIAILGFAFKKDTGDTRESSSIYISKYLMDEGAHLHIYDPKVPREQIVVDLSHPGVSEDDQVSRLVTISKDPYEACDGAHAVVICTEWDMFKELDYERIHKKMLKPAFIFDGRRVLDGLHNELQTIGFQIETIGKKVSSKRIPYAPSGEIPKFSLQDPPNKKPKV
B2: S316D: purified recombinant human UGDH, phosphomimetic serine 316 to aspartate point mutant (protein)
chain: B1 UDP-glucose 6-dehydrogenase with S316D, D325T
modifications: left off: His6, end not stated, state not stated
notes: purified recombinant human UGDH, phosphomimetic serine 316 to aspartate point mutant
B3: WT: purified recombinant human wild-type UGDH (protein)
chain: B1 UDP-glucose 6-dehydrogenase with D325T
modifications: left off: His6, end not stated, state not stated
notes: purified recombinant human wild-type UGDH
B4: S316A: purified recombinant human UGDH, phosphodeficient serine 316 to alanine point mutant (protein)
chain: B1 UDP-glucose 6-dehydrogenase with S316A, D325T
modifications: left off: His6, end not stated, state not stated
notes: purified recombinant human UGDH, phosphodeficient serine 316 to alanine point mutant

Experiments:
[1] = system: UGDH T325D; details: UGDH T325D obligate dimer; cited from earlier work
[2] = Thermofluor Stability Assay (thermal denaturation) of purified UGDH; type: physicochemical, human; details: for Tm Apo: apo enzyme; for Tm Holo: holoenzyme complex (substrate and cofactor)
Text: We first generated the UGDH S316 point mutants in a bacterial construct that expressed the proteins with a six-histidine fusion to facilitate purification by nickel affinity chromatography as we have done previously. […] However, UGDH S316D yields were somewhat lower as a result of protein precipitation following purification. To compare the intrinsic stability of the S316 point mutants, we used a modified version of the Thermofluor Stability Assay, which we have used previously as a preliminary indicator of UGDH quaternary assembly. The UGDH WT and UGDH S316A enzymes had significant increases in melting temperature (Tm) upon addition of either substrate or cofactor and were stabilized by almost 20°C in the holoenzyme complex as expected.
Purified S316 mutants were compared to the UGDH WT enzyme using the following approaches as previously described. Enzymatic activity was evaluated by steady state kinetics in the presence and absence of the endogenous inhibitor UDP-Xylose to compare Michaelis constants and IC50 values. Intrinsic stability was assessed by thermal denaturation and quaternary structure was determined by size exclusion chromatography. Binding of UDP-Xylose to recombinant UGDH and mutants was measured by isothermal titration calorimetry using the MicroCal PEAQ-ITC (Malvern Panalytical). UGDH WT (50 μM in 0.1 M sodium phosphate buffer, pH 7.4) was placed in the cell, with UDP-Xyl (250 μM) in the syringe. Binding heats were corrected for the heat of dilution and analyzed using the MicroCal PEAQ-ITC Analysis Software, employing a single-site binding model to determine Kd values.

Row | Molecule | Vmax values [1] | Tm Apo [2] | Tm Holo [2]
1 | B1 | 65 to 75 nmol/min/mg | – | –
2 | B2 | – | 47±1.0 °C | 63±0.3 °C
3 | B3 | – | 50±0.4 °C | 68±1.7 °C
4 | B4 | – | 49±0.2 °C | 66±3.0 °C
